Experimental data published in US10766960 (dated 2020).
Where two headings read alike, the source gives them in different places.

Key:
Test in all cases: SPR
FcgRIIa R = biological target: T1, FcgRIIa R (human, UniProt P12318)
T1 chain: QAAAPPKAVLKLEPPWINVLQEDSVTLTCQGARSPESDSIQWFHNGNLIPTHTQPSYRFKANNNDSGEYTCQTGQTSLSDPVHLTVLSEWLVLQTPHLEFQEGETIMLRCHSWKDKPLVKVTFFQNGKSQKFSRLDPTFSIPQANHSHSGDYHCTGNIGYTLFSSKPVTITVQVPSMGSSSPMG

FcgRIIIa F [1] = biological target: T2, FcgRIIIa F (human, UniProt P08637)
FcgRIa = biological target: T3, FcgRIa (human, UniProt P12314)
T3 chain: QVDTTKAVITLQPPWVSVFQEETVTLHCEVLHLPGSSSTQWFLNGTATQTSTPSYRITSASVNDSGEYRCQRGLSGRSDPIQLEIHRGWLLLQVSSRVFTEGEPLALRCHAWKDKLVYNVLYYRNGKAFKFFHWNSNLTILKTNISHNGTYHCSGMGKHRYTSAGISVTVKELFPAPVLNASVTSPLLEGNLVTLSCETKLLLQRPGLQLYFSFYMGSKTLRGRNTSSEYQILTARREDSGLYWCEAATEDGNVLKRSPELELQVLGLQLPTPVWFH

FcgRIIIa V = FcgRIIIa V (human, UniProt P08637)
Chain of FcgRIIIa V (P08637 17-208 F176V): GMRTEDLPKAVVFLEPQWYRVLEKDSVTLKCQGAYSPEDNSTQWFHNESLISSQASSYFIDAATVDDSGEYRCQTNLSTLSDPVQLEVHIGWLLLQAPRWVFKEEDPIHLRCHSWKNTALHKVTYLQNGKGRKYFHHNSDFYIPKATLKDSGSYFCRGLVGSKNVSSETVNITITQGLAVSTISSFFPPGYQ

FcgRIIb = biological target: T4, FcgRIIb (human, UniProt P31994)
T4 chain: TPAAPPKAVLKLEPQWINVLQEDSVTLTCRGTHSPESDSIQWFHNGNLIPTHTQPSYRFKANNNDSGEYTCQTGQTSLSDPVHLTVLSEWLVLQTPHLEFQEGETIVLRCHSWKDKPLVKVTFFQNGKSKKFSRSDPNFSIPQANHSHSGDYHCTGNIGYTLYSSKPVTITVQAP

FcgRIIa H = biological target: T5, FcgRIIa H (human, UniProt P12318)
T5 chain: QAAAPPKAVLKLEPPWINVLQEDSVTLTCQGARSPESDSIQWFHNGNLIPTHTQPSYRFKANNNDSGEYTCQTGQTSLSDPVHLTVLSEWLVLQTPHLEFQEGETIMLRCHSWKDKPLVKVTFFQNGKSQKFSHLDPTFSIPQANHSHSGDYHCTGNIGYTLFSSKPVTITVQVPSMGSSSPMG

FcgRIIIa F [2] = biological target: T2, FcgRIIIa F; remark: listed apart in the source
FcgRIIIa F [3] = biological target: T2, FcgRIIIa F; remark: listed apart in the source

T2 sequence (P08637 17-208): as the sequence (P08637 17-208 F176V) above, with V160F counted along it

B1: H240-Kn072/H240-Hl076/L73-k0 (antibody)
chain 1: QDQLVQSGAEVKKPGASVKVSCKASGFNIKDTYIQWVRQAPGQGLEWMGRIDPLRKQTKYREKFEGRVTITADTSTNTAYMELSSLRSEDTAVYYCVRSGREFDYWGQGTLVTVSSASTKGPSVFPLAPSSKSTSGGTAALGCLVKDYFPEPVTVSWNSGALTSGVHTFPAVLQSSGLYSLSSVVTVPSSSLGTQTYICNVNHKPSNTKVDKKVEPKSCDKTHTCPPCPAPEYYWGPSVFLFPPKPKDTLMISRTPEVTCVVVDVSDEEPEVKFNWYVDGVEVHNAKTKPREEQYNATYRVVSVLTVLHQDWLNGKEYKCKVSNKALPAPIEKTISKAKGQPREPQVCTLPPSRDELTKNQVSLWCLVKGFYPSDIAVEWESNGQPENNYKTTPPVLDSDGSFFLYSKLTVDKSRWQQGNVFSCSVMHEALHNHYTQKSLSLSP
chain 2: QDQLVQSGAEVKKPGASVKVSCKASGFNIKDTYIQWVRQAPGQGLEWMGRIDPLRKQTKYREKFEGRVTITADTSTNTAYMELSSLRSEDTAVYYCVRSGREFDYWGQGTLVTVSSASTKGPSVFPLAPSSKSTSGGTAALGCLVKDYFPEPVTVSWNSGALTSGVHTFPAVLQSSGLYSLSSVVTVPSSSLGTQTYICNVNHKPSNTKVDKKVEPKSCDKTHTCPPCPAPELLGGPSVFLFPPKPKDTLMISRTPEVTCVVVDVSHEEPEVKFNWYVDGVEVHNAKTKPREEQYNSTYRVVSVLTVLHQDWLNGKEYKCKVSNDALPMPIEETISKAKGQPREPQVYTLPPSRCELTKNQVSLSCAVKGFYPSDIAVEWESNGQPENNYKTTPPVLDSDGSFFLVSKLTVDKSRWQQGNVFSCSVMHEALHNHYTQKSLSLSP
chain 3: DIQMTQSPSSLSASVGDRVTITCRASQDIHKYIAWYQQKPGQAPRLLIQYTSTLQPGVPSRFSGSGSGTDYTFTISSLQPEDIATYYCLQYEQLRTFGGGTKVEIKRTVAAPSVFIFPPSDEQLKSGTASVVCLLNNFYPREAKVQWKVDNALQSGNSQESVTEQDSKDSTYSLSSTLTLSKADYEKHKVYACEVTHQGLSSPVTKSFNRGEC
Kd (FcgRIIa R): 710 nM
Kd (FcgRIIIa F [1]): 2.6 nM
Kd (FcgRIa): 0.1 nM
Kd (FcgRIIIa V): 1 nM
Kd (FcgRIIb): 5700 nM
Kd (FcgRIIa H): 130 nM

B2: GpH7-A53/GpH7-B78/GpL16-k0 (antibody)
chain 1: QVQLVQSGAEVKKPGASVTVSCKASGYTFTDYEMHWIRQPPGEGLEWIGAIDPKTGDTAYSESFQDRVTLTADKSTSTAYMELSSLTSEDTAVYYCTRFYSYTYWGQGTLVTVSSASTKGPSVFPLAPSSKSTSGGTAALGCLVKDYFPEPVTVSWNSGALTSGVHTFPAVLQSSGLYSLSSVVTVPSSSLGTQTYICNVNHKPSNTKVDKKVEPKSCDKTHTCPPCPAPELLGGPDVFLFPPKPKDTLMISRTPEVTCVVVDVSHEDPEVKFNWYVDGVEVHNAKTKPREEQYNSTYRVVSVLTVLHQDWLNGKEYKCKVSNKALPAPIEKTISKAKGQPREPQVYTLPPSRKELTKNQVSLTCLVKGFYPSDIAVEWESNGQPENNYKTTPPVLDSDGSFFLYSKLTVDKSRWQQGNVFSCSVMHEALHNRYTQKSLSLSP
chain 2: QVQLVQSGAEVKKPGASVTVSCKASGYTFTDYEMHWIRQPPGEGLEWIGAIDPKTGDTAYSESFQDRVTLTADKSTSTAYMELSSLTSEDTAVYYCTRFYSYTYWGQGTLVTVSSASTKGPSVFPLAPSSKSTSGGTAALGCLVKDYFPEPVTVSWNSGALTSGVHTFPAVLQSSGLYSLSSVVTVPSSSLGTQTYICNVNHKPSNTKVDKKVEPKSCDKTHTCPPCPAPELLGGPDVFLFPPKPKDTLMISRTPEVTCVVVDVSHEDPEVKFNWYVDGVEVHNAKTKPREEQYNSTYRVVSVLTVLHQDWLNGKEYKCKVSNKALPLPEEKTISKAKGQPREPQVYTLPPSRDELTKNQVSLTCLVKGFYPSDIAVEWESNGQPENNYKTTPPVLDSDGSFFLYSKLTVDKSRWQQGNVFSCSVMHEALHNHYTQESLSLSP
chain 3: DIVMTQSPLSLPVTPGEPASISCQASESLVHSNRNTYLHWYLQKPGQSPQLLIYKVSNRFSGVPDRFSGSGSGTDFTLKISRVEAEDVGVYYCSQNTHVPPTFGQGTKVEIERTVAAPSVFIFPPSDEQLKSGTASVVCLLNNFYPREAKVQWKVDNALQSGNSQESVTEQDSKDSTYSLSSTLTLSKADYEKHKVYACEVTHQGLSSPVTKSFNRGEC
Kd (FcgRIIIa F [2]): 11 nM

B3: GpH7-TA54/GpH7-B78/GpL16-k0 (antibody)
chain 1: QVQLVQSGAEVKKPGASVTVSCKASGYTFTDYEMHWIRQPPGEGLEWIGAIDPKTGDTAYSESFQDRVTLTADKSTSTAYMELSSLTSEDTAVYYCTRFYSYTYWGQGTLVTVSSASTKGPSVFPLAPSSKSTSGGTAALGCLVKDYFPEPVTVSWNSGALTSGVHTFPAVLQSSGLYSLSSVVTVPSSSLGTQTYICNVNHKPSNTKVDKKVEPKSCDKTHTCPPCPAPEYLWGPDVFLFPPKPKDTLMISRTPEVTCVVVDVSHEDPEVKFNWYVDGVEVHNAKTKPREEQWNATYRVVSVLTVLHQDWLNGKEYKCKVSNKALPAPIEKTISKAKGQPREPQVYTLPPSRKELTKNQVSLTCLVKGFYPSDIAVEWESNGQPENNYKTTPPVLDSDGSFFLYSKLTVDKSRWQQGNVFSCSVMHEALHNRYTQKSLSLSP
chain 2: QVQLVQSGAEVKKPGASVTVSCKASGYTFTDYEMHWIRQPPGEGLEWIGAIDPKTGDTAYSESFQDRVTLTADKSTSTAYMELSSLTSEDTAVYYCTRFYSYTYWGQGTLVTVSSASTKGPSVFPLAPSSKSTSGGTAALGCLVKDYFPEPVTVSWNSGALTSGVHTFPAVLQSSGLYSLSSVVTVPSSSLGTQTYICNVNHKPSNTKVDKKVEPKSCDKTHTCPPCPAPELLGGPDVFLFPPKPKDTLMISRTPEVTCVVVDVSHEDPEVKFNWYVDGVEVHNAKTKPREEQYNSTYRVVSVLTVLHQDWLNGKEYKCKVSNKALPLPEEKTISKAKGQPREPQVYTLPPSRDELTKNQVSLTCLVKGFYPSDIAVEWESNGQPENNYKTTPPVLDSDGSFFLYSKLTVDKSRWQQGNVFSCSVMHEALHNHYTQESLSLSP
chain 3: DIVMTQSPLSLPVTPGEPASISCQASESLVHSNRNTYLHWYLQKPGQSPQLLIYKVSNRFSGVPDRFSGSGSGTDFTLKISRVEAEDVGVYYCSQNTHVPPTFGQGTKVEIERTVAAPSVFIFPPSDEQLKSGTASVVCLLNNFYPREAKVQWKVDNALQSGNSQESVTEQDSKDSTYSLSSTLTLSKADYEKHKVYACEVTHQGLSSPVTKSFNRGEC
Kd (FcgRIIIa F [3]): 1 nM

B4: GpH7-TA22/GpH7-TA58/GpL16-k0 (antibody)
chain 1: QVQLVQSGAEVKKPGASVTVSCKASGYTFTDYEMHWIRQPPGEGLEWIGAIDPKTGDTAYSESFQDRVTLTADKSTSTAYMELSSLTSEDTAVYYCTRFYSYTYWGQGTLVTVSSASTKGPSVFPLAPSSKSTSGGTAALGCLVKDYFPEPVTVSWNSGALTSGVHTFPAVLQSSGLYSLSSVVTVPSSSLGTQTYICNVNHKPSNTKVDKKVEPKSCDKTHTCPPCPAPEYLWGPDVFLFPPKPKDTLMISRTPEVTCVVVDVSHEDPEVKFNWYVDGVEVHNAKTKPREEQYNATYRVVSVLTVLHQDWLNGKEYKCKVSNKALPAPIEKTISKAKGQPREPQVYTLPPSRKELTKNQVSLTCLVKGFYPSDIAVEWESNGQPENNYKTTPPVLDSDGSFFLYSKLTVDKSRWQQGNVFSCSVMHEALHNRYTQKSLSLSP
chain 2: QVQLVQSGAEVKKPGASVTVSCKASGYTFTDYEMHWIRQPPGEGLEWIGAIDPKTGDTAYSESFQDRVTLTADKSTSTAYMELSSLTSEDTAVYYCTRFYSYTYWGQGTLVTVSSASTKGPSVFPLAPSSKSTSGGTAALGCLVKDYFPEPVTVSWNSGALTSGVHTFPAVLQSSGLYSLSSVVTVPSSSLGTQTYICNVNHKPSNTKVDKKVEPKSCDKTHTCPPCPAPELLGGPDVFLFPPKPKDTLMISRTPEVTCVVVDVSHEDPEVKFNWYVDGVEVHNAKTKPREEQWNSTYRVVSVLTVLHQDWLNGKEYKCKVSNKALPLPEEKTISKAKGQPREPQVYTLPPSRDELTKNQVSLTCLVKGFYPSDIAVEWESNGQPENNYKTTPPVLDSDGSFFLYSKLTVDKSRWQQGNVFSCSVMHEALHNHYTQESLSLSP
chain 3: DIVMTQSPLSLPVTPGEPASISCQASESLVHSNRNTYLHWYLQKPGQSPQLLIYKVSNRFSGVPDRFSGSGSGTDFTLKISRVEAEDVGVYYCSQNTHVPPTFGQGTKVEIERTVAAPSVFIFPPSDEQLKSGTASVVCLLNNFYPREAKVQWKVDNALQSGNSQESVTEQDSKDSTYSLSSTLTLSKADYEKHKVYACEVTHQGLSSPVTKSFNRGEC
Kd (FcgRIIIa F [3]): 1.3 nM
